# Test results reported in the nanobody polyreactivity screen of Harvey et al. (2022).
# Experiment: yeast display, Sf9 membrane polyspecificity reagent, FACS + sequencing; frameworks hold sequencing errors
# Procedure, shortened: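 After 36–48 hours of galactose induction, yeast (Saccharomyces cerevisiae BJ5465) displaying a synthetic nanobody library were stained at 4 °C for 1 hour with 10% biotinylated, detergent-solubilized Sf9 membrane reagent. Streptavidin microbeads enriched the stained cells before FACS sorting into low and high (top ~1%) gates on anti-HA and streptavidin fluorescence. Each clone's polyreactivity label reflects its gate of origin.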
row,Sequence,polyreactivity (PSR sort gate)
1,QVQLVESGGGLVQAGGSLRLSCAASGSTFYYYTMGWYRQAPGKEREFVAAITRSGGSTYYADSVKGRFTISRDNSKNTVYFQMNSLKPEDTAVYYCNVDGTSSSPFVQKHKEMDYWGQGTQVTVSS,low polyreactivity
2,QVQLVESGGGLVQAGGSLRLSCAASGSTFYYYVMGWYRQAPGKERELVATITSGGSTNYADSVKGRFTISRDNAKNTVYLQMNSLKPEDTAVYYCAADWYLIIARSRPTLDYDYWGQGTQVTVSS,low polyreactivity
3,QVQLVESGGGLVQAGGSLRLSCAASGSTIAGNAMGWYRQAPGKERELVAVITRGGSTNYADSVKGRFTISRDNAKNTVSLQMNSLKPEDTAVYYCARYRFLLDYWRGGYYWGQGTQVTVSS,high polyreactivity
4,QVQLVESGGGLVQAGGSLRLSCAASGSTIDGYAKGWYTQAPGKEREFVAAISFSSASTYYADSVKGRFTISSDNAKNTFYLQMNSLIPEDTAVYDCAASYKGLWHGDYDYWGQGTQVTVSS,low polyreactivity
5,QVQLVESGGGLVQAGGSLRLSCAASGSTIEPYAMGWYRQAPGKEREFVAVITLSGGTTYYADSVKGRFTISRDNAKNTVYLQMHSLKPEDTAVYYCNAQYRKARVDEYYYWGQGTQVTVSS,high polyreactivity
6,QVQLVESGGGLVQAGGSLRLSCAASGSTIFENVMGWYRQAPGKEREFVAAINTSGGSTYYADSVKGRFTISRDNAKNTVYLQMNSLKPEDTAVYYCARDSYWEMDYWGQGTQVSVSS,low polyreactivity
7,QVQLVESGGGLVQAGGSLRLSCAASGSTIGFYTMGWYRQAPGKERELVATISYSGGDTYYADSVKGRFTISRDNAKNTVYLQMNSLKPEDTAVYYCAADLGDYVTTYSWLDSWGQGTQVTVSS,low polyreactivity
8,QVQLVESGGGLVQAGGSLRLSCAASGSTIGRYTMGWYRQAPGKERELVAAITGSGAGTYYADSVKGRFTISRDNAKNTVYLQMNRLKPEDTAVYYCNTVFRGGQFRYVRGVKYGYWGQGTQVTVSS,high polyreactivity
9,QVQLVESGGGLVQAGGSLRLSCAASGSTIGSYAMGWYRQAPGKERELVAVITGGGDTNYADSVKGRFTISRDNAKNTVYLQMNSLKPEDTAVYYCAAEGSFYRYHVGSDYWGQGTQLTVSS,low polyreactivity
10,QVQLVESGGGLVQAGGSLRLSCAASGSTIGYNAMGWYRQAPGKERELVAAISGSGTDTRYADSVKGRFTISRDNAKNTFYLQMNSRNPEDTAVYYCAVSVVYRGSKRVRQNPMEYWGQGTQVTVSS,high polyreactivity
11,QVQLVESGGGLVQAGGSLRLSCAASGSTILTYVMGWYRQAPGKERELVAAISYSGGRSYYADSVKGRFTISRDTAKNTVYLQMNSLKPEDTAVYYCAAYRVNKSSRTMDYWGQGTQVTVSS,high polyreactivity
12,QVQLVESGGGLVQAGGSLRLSCAASGSTINFYAMGWYRQAPGKERELVAAIRVSSGSTYYADSVKGRFTISRDNAKNTVYLQMDSLKPEDTAVYYCAAYLKVRSPRDGYDYWGQGTQVTVSS,high polyreactivity
13,QVQLVESGGGLVQAGGSLRLSCAASGSTINIYAMGWYRQAPGKERELVAAISGRGGSTYYADSVKGRFTISRDNAKNTVYLQMNSLKPEDTAVYYSAASGYKVGSYRARMYYWGQGTQVTVSS,high polyreactivity
14,QVQLVESGGGLVQAGGSLRLSCAASGSTIPLYAMGWYRQAPGKERELVAAISRSGGRTYYADSVKGRFTISRDNAKNTVYLQMNSLKPEDTAVYYCDSAQGSRVDYWGQGTQVTVSS,high polyreactivity
15,QVQLVESGGGLVQAGGSLRLSCAASGSTIPPYAMGWYRQAPGNERELVAAITSGGSTYYADSVKGRFTISRDNAKNTVYLQMNSLKPEDTAVYYCAASWDPWEYDYWGQGTQVTVSS,low polyreactivity
16,QVQLVESGGGLVQAGGSLRLSCAASGSTISYYAMGWYIQAPGKERELVAAISQTGGTTYYADSVKGRFTISRDNAKNTVYLQMNSLKPEDTAVYYCNAARPGGHYWGQGTQVTVSS,low polyreactivity
17,QVQLVESGGGLVQAGGSLRLSCAASGSTISYYAMGWYRQAPGKERELVAAITWNGGSTYYADSVKGRFTISRDNAKNTVYLQMNSLKPEDTAVYYCAKDTYYYDYDYWGQGTQVTVSS,low polyreactivity
